Reference: PMC5847613 (Scientific Reports, 2018)

Tests used:
Details in all cases: both partners purified
[1] = molecular target: recombinant influenza B HA (B/Brisbane/60/08) (Influenza B virus B/Brisbane/60/2008, UniProt C0LT35, strain); experiment: ELISA
[2] = molecular target: recombinant influenza A H1 HA (A/Brisbane/59/07) (Influenza A virus A/Brisbane/59/2007 …, UniProt D5F1Q8, strain); experiment: ELISA
[3] = molecular target: recombinant HA of A/USSR/1977 H1N1 (Influenza A virus A/USSR/90/1977 …, UniProt P03453, strain); experiment: mPLEX-Flu multiplex fluorescent-bead assay (Luminex)
[4] = molecular target: recombinant HA of A/South Carolina/01/1918 H1N1 (Influenza A virus A/South …, UniProt Q9WFX3, strain); experiment: as above
[5] = molecular target: T1, recombinant HA of pH1N1 A/California/04/2009 (Influenza A virus A/California/04/2009 …, UniProt C3W5S1, strain); experiment: SPR
T1 construct: source: bought: Protein Sciences Corp., Meriden, CT

B1: KPF1 human monoclonal antibody (antibody, V domains shown)
VH: EVQLLESGGGLVQPGGSLRISCAASGSTFGDFAMSWVRQSPGRGLEWVSVTSAGGDRTYYADSVKGRFTISRDNSKNTLYLQMNSLRGEDTAMYYCARLDSSGFHYGRPGRNWGQGTLVTVSS
VL: DIQMTHSPPSLSASVGDRITITCQASQDISYYLIWYQQKPGKAPKPLIYDASNLEAGVPSRFSASGSGTDFTLTISSLQPEDLATYYCQQYKSLPYTFGQGTKLEIK
notes: also called KPF1 hmAb; hmAb KPF1
[1]
  binding result: no binding
[2]
  binding result: binds
[3]
  binding result: no binding (tested: 1 μg/ml)
[4]
  binding result: binds
[5]
  Kd: 0.178 nM
